Reference: US20130281317A1 (ALLBERT EINSTEIN COLLEGE OF MEDICINE OF YESHIVA UNIVERSITY, published 2013)

Target: bovine serum albumin (BSA) (bovine, UniProt P02769 25-607)
Assay: phage ELISA, coated wells
Protocol: Wells of Costar EIA/RIA high-binding plates were coated with ˜400-600 μg of antigen per well in phosphate-buffered saline (PBS) pH 7.0 at room temperature for 1 hr. The well solutions were decanted, and unbound well sites were blocked with PBS-T/0.5% (w/v) BSA for 1 hr. The wells were washed with PBS-T, phage solutions added and allowed to bind for 30 mins The phage solutions were decanted, the wells washed 5-7 times with PBS-T. Next, a solution containing 1:2500 dilution of anti-M13/HRP conjugate (GE Healthcare, Piscataway, N.J.) was added and allowed to bind for 30 mins. The wells were washed with PBS-T ˜5-7 times and developed using 3,3′,5,5′-tetramethylbezidine (TMB) substrate (Sigma). The ELISA signal was quantified either by direct measurement of blue color absorbance (OD650) or by quenching with sulfuric acid after 10-15 mins and determining the OD at 450 nm.

Chain of bovine serum albumin (BSA) (P02769 25-607 limits assumed): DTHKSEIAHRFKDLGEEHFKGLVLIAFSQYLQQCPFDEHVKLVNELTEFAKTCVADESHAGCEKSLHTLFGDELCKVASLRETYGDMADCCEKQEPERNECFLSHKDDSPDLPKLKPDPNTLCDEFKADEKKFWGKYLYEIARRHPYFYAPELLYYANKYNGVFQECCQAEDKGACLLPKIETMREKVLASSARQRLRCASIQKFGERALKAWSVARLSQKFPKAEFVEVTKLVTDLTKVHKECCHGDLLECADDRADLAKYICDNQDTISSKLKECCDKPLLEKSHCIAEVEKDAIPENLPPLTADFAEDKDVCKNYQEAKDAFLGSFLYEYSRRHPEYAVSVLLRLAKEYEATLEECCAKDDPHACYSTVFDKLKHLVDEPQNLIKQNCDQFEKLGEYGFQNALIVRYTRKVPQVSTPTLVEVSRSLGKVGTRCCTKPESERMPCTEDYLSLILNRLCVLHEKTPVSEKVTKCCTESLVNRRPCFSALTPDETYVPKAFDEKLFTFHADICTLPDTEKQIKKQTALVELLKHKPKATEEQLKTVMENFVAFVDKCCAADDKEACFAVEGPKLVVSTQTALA

B1: 2G12 (Fab)2 fragment displayed bivalently on M13 phage from p2G12-Fab2zip (WT) (Fab, V domains shown, not shown: a dimerising Fc or GST; large carriers)
VH: EVQLVESGGGLVKAGGSLILSCGVSNFRISAHTMNWVRRVPGGGLEWVASISTSSTYRDYADAVKGRFTVSRDDLEDFVYLQMHKMRVEDTAIYYCARKGSDRLSDNDPFDAWGPGTVVTVSP
VL: VVMTQSPSTLSASVGDTITITCRASQSIETWLAWYQQKPGKAPKLLIYKASTLKTGVPSRFSGSGSGTEFTLTISGLQFDDFATYHCQHYAGYSATFGQGTRVEIKR
notes: also called 2G12-Fab-biv phage; WT 2G12 clone
B1: no binding.
